# Measurements published in the NTF2 design screens of Basanta et al. (2020).
# Assay: protease stability score; higher = more stable; yeast display proteolysis, trypsin and chymotrypsin;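 also: relative to predicted unfolded state with 0 unfolded-like and 1 meaning tenfold more protease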
row,Sequence,protease stability score
1,DEEEHDARELARIVIEQFLTGNEDMLREFMDPNTRLHVNGVHRHGRESMVIMLRQLRTKRVHIKSIRIIGEKVDVDGILNGEVNGVEDNHQVHFHLIKVDGQWYIHHVIIR,1.39
2,DEEREKVIRFLERFQESSRTGDEETLHRLADPNVKLTVDGRELHGREVMVRYAIEWRIEDVEPKRYTEQGDKLILHVRIHTTIGDKHEVREVDLFVRKIDGRWIMEEFRVR,0.96
3,SEEEKKLNHWLELWLRSVVTGDEEHLERLADPHVRNHVGDFESHGREEVLKLMEMLKRTLGAKHIRIEIHHVDVQGDKVRMDTRIIIDAENHHLTLKSRMHTRKIDGRWYLHSLEID,1.06
4,DESEKHAEEFLRLLEESLLTGNWKFISELLDPRARTDYNGRDLHGRETMERWVKDFVRHIRIDHINNKTIDVQGDKVIIIGEVDGTINGRRERLEVHIFFLKVNGRWYLESTEFR,1.27
5,SEDKHMLELALKLLKDSWKTGDEHLSERLMDPHVRLEQGDKEFHGREASQLWFRQIDHVEDMHVHRIRMINGKAYMDVHVVGNVNGKHVEFHQHIVFHKVNGRWIVESVVDS,1.26
6,DEEDRELERIYQELFEAWLTGNEDDLKKLADPNVRVDINGKDKVGREQEIEDLRRVKNMKVKLEDSDIIGDWITVDVVINFNGREIRMELEWRVINGKVKRVIVRYR,1.2
7,TEDEENAERVARMFLKLLTTGDEHRLTELLDPNVIVEVGDKILIGREEALKLLRTWREKYGIDHVDVRHVEIEIVGDKVNVHMHGTIYVGDKKKDTRIHLHIRKINGRWMVEKVSIEEK,2.68
8,SENEETAEDVIELVIEAWVTGDEDLFLSLLDPRVRLEVNGVHHHGRERVLEEIIKNLETLGVDHIEIRIREIKLIGEWVEIHGELIYRYNGVHERRDVEIIAFKFNGRWVLRSLRVR,1.82
9,DDRERQAESMMHLWLEVLLTGDEDRLMKLADPNTRHHVNGVDAHGRENIKRVAKEFDEQMRIHRVEIRQVRIIGDKTEVDGRVDVEVNGRRRDTETHLRVIVIDGRIHEVHLIIR,0.725
10,TEEERDSKLAFQLLFKTLETGDEREHREFIDPNMRLHVGNYEFIGWERAVHIMRRIDHVQRIEIEDTYTIGNKVTIDGTDYIEVGDFTERIRSRWIILKVDGKWFIHHVELR,0.679
11,HERQKEMETLVELFDEEWLTGNEQTHRRLADPHMKLDVNGKTYHGWKQYNKHLQDFLKRIDHVELEIKRIRVQGEYAHSDGTLRMHYNGVTEERNVHVEINIIDGRLKSVHLKVE,1.1
12,SEDEHRSRHDAELFLKFVKTGDEHHLQRFADPNVQFHQGEWEDHGRESLREQFRKFMEDLGADHSELESIRVHIQGDKMTVHIHVTFRVGDKTIKSTWRFYITKINGRWTMERMDVELH,0.629
13,SELDTLVEEVAEIIVKYLITGDEDSLLKMLDPNMRTDINGREIHGREVTHEFLRQEKERLGVSRIQMRLESFRVQGDKIIIHGTLHYNGKDFEVIVIIIVWNGRIREIRIEIR,1.4
14,NEEEEEIKTLSEEILRAWMTGDFDHLRDMMDPNTKLDINGKEVHGREILINLLRKIMEDLGVKHIHIRHKEHQGNWTHLDERQIVGDKRINVHYIWVVVDGRIHSIRIEMR,1.16
15,DNEERYMIKLLHMLWLAFLTGDEELWYKLADPHVRWTFENREIHGREQFVKEQRRIKNMRIEMELKDVRVQGDKIHTDGHLEINQGDKHIHTDVRLHLVVINGRLHEFHVTLV,1.54
16,DEEEEMSKEATEWFKRVSKTGDEKDLVEFLDPNVLLEIGDKRFHGREVASHWMTRMFHEIRIRHIEEKEFRIYNGRATLHEHLDIEFDGRTSKIHVTVVYIKVNGRWFMESLHIR,0.808
17,DEEEELVIHVAHEILHNHLTGDEERWEELADPRTKVEFNGVQNHGREFTNEYRKEFHNRYDHWEIRIRDYRVIDGVAHFDTELIIRQGDKEIRVKVHLEFIIVNGKVSEIRIEVR,0.607
18,DEDEEKARKFTELLVRSWRTGDEDSLREMVDPHVRVDVDGVKLHGWHDFMKLVRHIRVRDLHNREFTFFEGRADIIQETDVDIGDKERRTVITIRMTKYDGRWFLHNVTVH,1.38
19,DEEEEELHRLSRLILHLLLTGDWEKLADLADPHMRFEMVVGDKNEEFHGRERWLKFLRMVREKFKGMRIHLQDERVYGDKNDLDIVLNVNGQRHKVHLHLVVVDGVIKEIKIKVE,2.18
20,DEERHILEELMRILTEAMHTGDEHLLEWLLDPHMIIEIGDKTLHGRDQILRVVEEIRRHIRRIEVKHSHVQGDKIRIEGHMHSETEFNGRRFSFTVYVEIIIVKINGVWRIRSLHIH,1.39
21,DEDEERARHHLEEIIKTIHTGDENLYEKLVDPNAWMDINGRELHGREEVVKYWSHEAHRFGIDVIRLRHEERVGNYVHSDTDLEVNGKTIKTRLVMLKINGKWVIQSFEMH,0.75
22,SEHHEVTEKLTRIILHQWDTGNERSLRKMMDPNARVEIEIGDKSWEYHGRENFRHAVERFDYLDNKEHKDERIVGDFSIIDGRVDGVQGDKRYDTNVEIIIIIVNGRIRAIRFIVR,1.26
23,SEEEHEEREAIEQLTRSLTTGDEHMMTNNMDPNVRIHIDGRDLVGREEAIKWLQEIHKKYKNIKYEIKRIDSFNGRLIVDGRVEYNGRRVDMHLIALKFDGRWLIEEVRVN,2.26
24,HEHEEEVRSMTRLFLHAFVTGDWRTIVELIDPNVRTWFNGKDDHGRESLFKNLIRVLEEFGADHVDITIEEMEVQGNKVRVKMIIEVIVGDKDLRLSINQQAYKVDGRWRVKEIIIH,0.725
25,HEEEKLNHLWYEIVVHLLLTGNWKEIKKNADPHARSDINGVEYHGREEVSEVLHHVMKKMGAKVFREKEHDHQGEYMHIHFEIRVGDKLVESTLISLKVDGRWIHHEYREK,1.37

row,Sequence,protease stability score
1,DEEEEYYRRAVEIHERVLRTGDWRQLRELMDPRTKIDVGDKSFHGRDTITHWTKEMLEKFGVTKVEFHFDHLEMQGDKANIRGTLQINGQPIDISIHSVKIDGRWLIKFVKID,0.822
2,SEEQENAERILRMWIHALETGDEHTQKRLLDPNVRDEVNGVEFHGRERAVKLMNDLHEELRIKDWIPRDIHLVNGVLILHVEVRLEVDGQSRNHEVIIVIKKVNGRWFIHRIHVR,1.45
3,DEEEELAHKATEHWLHLVRTGDEEKISSQADPNTKVEIRQGDKRIDSHGMEHFSELLRKLIEDYGVNHIHVNIVRLIDGRVHVNSLVHVGDKEIKIHIWADKVNGRWIHRNMHVHVG,0.547
4,DEEERRTREFTEHVLHAEETGDFDSFVELADPNVRMRIGDKEIHGMEMVAKWLVHMRIKHFNLHRIEIQGEKVHIDGEIKGRFNGRDTETKVIFHIVVIDGRLHSQIIQIH,1.54
5,DDSQDIAKTMVDIITKNSLTGDEENFEHLVDPDARLTVNGVELHGREDVVRWMKHARIHDTRVRHIRVQGNKIEVDSESRVDINGKENEMKFKLIFIKVNGQWHIRDIEIR,2.13
6,SEDERDAHRILDEEFEAIWTGDEHFLRELLDPNVQMDFNGVKLHGRHAFREIFRRFDWVDRIRLEEIRIFNGKVEIHIREDGFIDGRRTNTTSVFFMEKVDGRWKVRKMRIG,1.66
7,SERREFSNFTMQMTITVTLTGDFHTSHRFVDPHARWEQGDKEYHGREIFAKTLLDKSSELGVDHYDIKTIHIQGEKVTVHLRVEVNGVEFELILRAHKINGVWLMESVEVRER,0.971
8,HEELELRRRVLENWTKNMITGNEEETKKLADPNVRIDIDGVELHGMDIWYEYMRHIRIKIQHIERKDVKDYDGKVEVDADSHVEMEVNGKLTSTRRKLIFIHLKVDGRWVIHSISFH,0.823
9,DEEEQHLKKFLKYLKKAIETGDWHKITEMADPNTRLNINGVDNIGWEIISHILMHELEELGLEQIHVHFEHERIQGDKVKLEIHLHIGDKVEHAEMYILKFDGRWRIKRLVRG,1.93
10,DEEEKWFRESEKLIEELIHTGNEEEFRKLADPNMRLDFNGVEVHGRHHFFREIRHTSEKFGVDKVEVRLKDFKVFNGVAHYHGEIIFNGRTIEHEIIAEKVNGRWRLQFLIFR,1.61
11,SETDEDFKRLVEEFIRLFLTGDEDQLLELHDPNTRVEVGDFEEHGMEKWSRFLEEERRRVKGLKLVREDEKIEVQGNKLHLILHGAIEFDGVRLFTRIIVHAEKVNGKWVIRRFKMETR,1.54
12,TEDEDIFRHALEVWLRSFLTGNEEILNHLFDPHARVHIDGKNLHGMEMMVTHRQRHIEEARIRDSDIEHKNVIDGRIHIDIRVHGEVNGQEMDFNVTIIAMKVDGRWLIHSLHVE,0.265
13,SEEEEFVELAVRLFLETMRTGDEKDINRLADPHTRNIVNGRDIIGREELTRQLHEILHFFKNVQVHIEEVRWQGNYIVLKILWNFDGQTMEVHVYARKIDGRWVETEFEFR,2.08
14,SEQEELSKKFFHDLLHAMKTGDESSLYSFLDPNMKHEFDGKVIHGMEEVARIIVEKLERADHHDIRIHDEKMQGDYLVMDVRIIINIDGKEVIKDIKLTWLKIDGRWHVTSVVLH,1.73
15,HEEEEHIWRMFKLFIHYLLTGDPDMLARYADPNVRLDINGQEWHGREEMFEMLKIFFDELRIKHFHLRRWRVVDGVAHVDVETHGNYNGREETRKVHIHVVIFNGRMKELVIKIS,2.66
16,SEEEKEVKEHLKIIHDVIRTGNEHDIKELMDPNMLLVFNGQKHIGRDHWEELLKKLGADHVHLHIRSFTIINGQARLETEVEWRAENRTIRRETEIVTDKINGRWIIHTIIFR,1.5
17,DEDEELVKEWFEILMHKVITGDEDTLRNLADPNVRVDINGRDHHGREKFIEVYRRLWEDFGIDYIDSDVEEMKVYDGQAEVTIRLEIRFNGRTLELTTHYDVEKVDGKWRLRRHEVR,1.29
18,DEDTHWIRDALRRYEEMLRTGDEDLFRRLFDPHVRVEINGQENHGMESILKLYRDLVEHLGIKHVQEVELEDVNMIDGVIILHIRVRVRFDGKHETIRMNVVAYKVNGQWRLHELKEG,1.47
19,DSHYHLFIYNMELLSTLLKTGDEHRNTEMFDPHVRIVVGEKEIHGREDVEKYLREIRIEEMRFHLRRLDVQGEKVTVEGELRIRFWIGDKEHEHNEDARIHLLKINGRWRLKEIESK,2.43
20,DEKEETIERLIRMLWHAWRTGDEDSLRNLFDPHAKLHVDGRDLVGMEMVYEDFHRQLNEWRINDLVIRTFRVQGDKIEIKGEIFGDINGRHTRHEVIIHIVVVDGRIKSLEVIND,1.66
21,DEENEHSEKISEEVLHALHTGDWNRLAHLADPHTLLIIEYGDKEIVNHGWEVFVKWILDVFRKVKNIKVHIRDSKVIGDKIHLDVEIHFNGRTTTVHIDITIIDGRLHSIHINHK,1.8
22,DEDHKHSEEAIKRWIDTMVTGDERLFNHLADPHTKIEFNGVDNHGMEEAVRVMIFIFRLLGVDHIRIEFRERHVFNGKVVWHFHLERRIGDKTEHINTHILMEKVDGRWLIQSERYE,1.56
23,DEEDEETREIAEMLHRWFITGDWKALMKYVDPNMRNIIHVNGRNIHTHGWKDMVKDLKDLGLENIHVDLKSISFQGDKAHIDGQLRVGDKEEKVEIHSEVVNGRIKRLEIRVH,1.9
24,NDEEQVAHKFFEKLMHALLTGDEERLKELHDPDVRVDYGNFKLVGREKMVEFWHRFLEEIRLRNTHIETYHIFDGRLEIHSRIHIEVDGKIRIMEVYLEVRKIDGKWRLTHVEFR,1.68
25,SEEQEEMRKLLKEFWHHTQTGDEDSFKRLADPDVKLRIDGKNYHGREATEFFTRRFDVIHDLRIHHMTIQGDWVRLEGTMHIEVGNYHDTKDVRIIILKYNGRWVNHEVRIH,0.741
